According to paper PMC4489720:

Columns and labels:
[1] = target: His-tagged recombinant full-length HB3VAR06 (FV6) (P. falciparum HB3); test: SEC; Superdex 200 10/30 HR, 50 mM Tris-HCl, 150 mM NaCl, pH 7.4; α2M (150 μg) alone and with molar ratios of FV6, incubated on ice 15 min; 0.5 mL/min, A280
[2] = target: His-tagged recombinant full-length HB3VAR06 (FV6) (P. falciparum HB3); test: ELISA; MaxiSorp plates coated with recombinant PfEMP1 constructs (18 nM, overnight, 4°C); blocked in TSM buffer with 1% Ig-free BSA; α2M or α2M-MA (10 nM; titrated in Fig 2A); detected with anti-α2M antibodies

Binder | stoichiometry N [1] | amount bound relative to α2M-MA (fold) [2] | stoichiometry N (FV6 per α2M-MA) [1]
α2-macroglobulin (α2M), native (natural protein) SVSGKPQYMVLVPSLLHTETTEKGCVLLSYLNETVTVSASLESVRGNRSLFTDLEAENDVLHCVAFAVPKSSSNEEVMFLTVQVKGPTQEFKKRTTVMVKNEDSLVFVQTDKSIYKPGQTVKFRVVSMDENFHPLNELIPLVYIQDPKGNRIAQWQSFQLEGGLKQFSFPLSSEPFQGSYKVVVQKKSGGRTEHPFTVEEFVLPKFEVQVTVPKIITILEEEMNVSVCGLYTYGKPVPGHVTVSICRKYSDASDCHGEDSQAFCEKFSGQLNSHGCFYQQVKTKVFQLKRKEYEMKLHTEAQIQEEGTVVELTGRQSSEITRTITKLSFVKVDSHFRQGIPFFGQVRLVDGKGVPIPNKVIFIRGNEANYYSNATTDEHGLVQFSINTTNVMGTSLTVRVNYKDRSPCYGYQWVSEEHEEAHHTAYLVFSPSKSFVHLEPMSHELPCGHTQTVQAHYILNGGTLLGLKKLSFYYLIMAKGGIVRTGTHGLLVKQEDMKGHFSISIPVKSDIAPVARLLIYAVLPTGDVIGDSAKYDVENCLANKVDLSFSPSQSLPASHAHLRVTAAPQSVCALRAVDQSVLLMKPDAELSASSVYNLLPEKDLTGFPGPLNDQDNEDCINRHNVYINGITYTPVSSTNEKDMYSFLEDMGLKAFTNSKIRKPKMCPQLQQYEMHGPEGLRVGFYESDVMGRGHARLVHVEEPHTETVRKYFPETWIWDLVVVNSAGVAEVGVTVPDTITEWKAGAFCLSEDAGLGISSTASLRAFQPFFVELTMPYSVIRGEAFTLKATVLNYLPKCIRVSVQLEASPAFLAVPVEKEQAPHCICANGRQTVSWAVTPKSLGNVNFTVSAEALESQELCGTEVPSVPEHGRKDTVIKPLLVEPEGLEKETTFNSLLCPSGGEVSEELSLKLPPNVVEESARASVSVLGDILGSAMQNTQNLLQMPYGCGEQNMVLFAPNIYVLDYLNETQQLTPEIKSKAIGYLNTGYQRQLNYKHYDGSYSTFGERYGRNQGNTWLTAFVLKTFAQARAYIFIDEAHITQALIWLSQRQKDNGCFRSSGSLLNNAIKGGVEDEVTLSAYITIALLEIPLTVTHPVVRNALFCLESAWKTAQEGDHGSHVYTKALLAYAFALAGNQDKRKEVLKSLNEEAVKKDNSVHWERPQKPKAPVGHFYEPQAPSAEVEMTSYVLLAYLTAQPAPTSEDLTSATNIVKWITKQQNAQGGFSSTQDTVVALHALSKYGAATFTRTGKAAQVTIQSSGTFSSKFQVDNNNRLLLQQVSLPELPGEYSMKVTGEGCVYLQTSLKYNILPEKEEFPFALGVQTLPQTCDEPKAHTSFQISLSVSYTGSRSASNMAIVDVKMVSGFIPLKPTVKMLERSNHVSRTEVSSNHVLIYLDKVSNQTLSLFFTVLQDVPVRDLKPAIVKVYDYYETDEFAIAEYNAPCSKDLGNA | > 4 FV6 per α2M | 4 fold | 
methylamine-activated α2-macroglobulin (α2M-MA) (natural protein, internal thioester cleaved by methylamine (MA-activated)) SVSGKPQYMVLVPSLLHTETTEKGCVLLSYLNETVTVSASLESVRGNRSLFTDLEAENDVLHCVAFAVPKSSSNEEVMFLTVQVKGPTQEFKKRTTVMVKNEDSLVFVQTDKSIYKPGQTVKFRVVSMDENFHPLNELIPLVYIQDPKGNRIAQWQSFQLEGGLKQFSFPLSSEPFQGSYKVVVQKKSGGRTEHPFTVEEFVLPKFEVQVTVPKIITILEEEMNVSVCGLYTYGKPVPGHVTVSICRKYSDASDCHGEDSQAFCEKFSGQLNSHGCFYQQVKTKVFQLKRKEYEMKLHTEAQIQEEGTVVELTGRQSSEITRTITKLSFVKVDSHFRQGIPFFGQVRLVDGKGVPIPNKVIFIRGNEANYYSNATTDEHGLVQFSINTTNVMGTSLTVRVNYKDRSPCYGYQWVSEEHEEAHHTAYLVFSPSKSFVHLEPMSHELPCGHTQTVQAHYILNGGTLLGLKKLSFYYLIMAKGGIVRTGTHGLLVKQEDMKGHFSISIPVKSDIAPVARLLIYAVLPTGDVIGDSAKYDVENCLANKVDLSFSPSQSLPASHAHLRVTAAPQSVCALRAVDQSVLLMKPDAELSASSVYNLLPEKDLTGFPGPLNDQDNEDCINRHNVYINGITYTPVSSTNEKDMYSFLEDMGLKAFTNSKIRKPKMCPQLQQYEMHGPEGLRVGFYESDVMGRGHARLVHVEEPHTETVRKYFPETWIWDLVVVNSAGVAEVGVTVPDTITEWKAGAFCLSEDAGLGISSTASLRAFQPFFVELTMPYSVIRGEAFTLKATVLNYLPKCIRVSVQLEASPAFLAVPVEKEQAPHCICANGRQTVSWAVTPKSLGNVNFTVSAEALESQELCGTEVPSVPEHGRKDTVIKPLLVEPEGLEKETTFNSLLCPSGGEVSEELSLKLPPNVVEESARASVSVLGDILGSAMQNTQNLLQMPYGCGEQNMVLFAPNIYVLDYLNETQQLTPEIKSKAIGYLNTGYQRQLNYKHYDGSYSTFGERYGRNQGNTWLTAFVLKTFAQARAYIFIDEAHITQALIWLSQRQKDNGCFRSSGSLLNNAIKGGVEDEVTLSAYITIALLEIPLTVTHPVVRNALFCLESAWKTAQEGDHGSHVYTKALLAYAFALAGNQDKRKEVLKSLNEEAVKKDNSVHWERPQKPKAPVGHFYEPQAPSAEVEMTSYVLLAYLTAQPAPTSEDLTSATNIVKWITKQQNAQGGFSSTQDTVVALHALSKYGAATFTRTGKAAQVTIQSSGTFSSKFQVDNNNRLLLQQVSLPELPGEYSMKVTGEGCVYLQTSLKYNILPEKEEFPFALGVQTLPQTCDEPKAHTSFQISLSVSYTGSRSASNMAIVDVKMVSGFIPLKPTVKMLERSNHVSRTEVSSNHVLIYLDKVSNQTLSLFFTVLQDVPVRDLKPAIVKVYDYYETDEFAIAEYNAPCSKDLGNA |  |  | 1
